Data published in patent publication US20180155451A1 (published 2018).

T1: FcγRIIa R (FcγRIIa, allotype R: Arg at position 131) extracellular domain with C-terminal His tag (human, UniProt P12318 34-217)
T1 construct: extracellular domain; also called FcgRIIa R; 2aR; not shown: His tag at the C terminus
T1 sequence (looked up): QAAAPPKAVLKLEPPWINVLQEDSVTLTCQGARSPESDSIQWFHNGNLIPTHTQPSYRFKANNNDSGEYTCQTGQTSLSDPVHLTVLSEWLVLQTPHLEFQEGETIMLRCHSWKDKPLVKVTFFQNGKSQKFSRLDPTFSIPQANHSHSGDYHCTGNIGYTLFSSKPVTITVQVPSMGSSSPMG

T2: FcγRIIb extracellular domain with C-terminal His tag (human, UniProt P31994 43-217)
T2 construct: extracellular domain; also called FcgRIIb; 2b; not shown: His tag at the C terminus
T2 sequence (looked up): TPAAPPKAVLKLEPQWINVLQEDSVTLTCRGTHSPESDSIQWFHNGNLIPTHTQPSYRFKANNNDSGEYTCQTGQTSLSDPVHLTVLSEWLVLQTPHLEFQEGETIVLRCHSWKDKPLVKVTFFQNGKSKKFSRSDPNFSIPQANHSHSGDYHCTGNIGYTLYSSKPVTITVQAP


How the values were obtained:
[1] = biological target: T1, FcγRIIa R (FcγRIIa, allotype R: Arg at …); experiment: ratio He/Con_2aR : He/Con_2b (FcgRIIa R over FcgRIIb), SPR Biacore
Procedure: The heterodimerized antibodies He Abs in which one of the H chains was introduced with an alteration were assayed for their binding activities to each activating FcγR and inhibitory FcγR according to the method described in Example 4. […] The activating FcγRs in FIGS. 26, 27, 28, and 29 are FcγRIa, FcγRIIa (R), FcγRIIa (H), and FcγRIIIa, respectively.
Analysis of interaction between objective antibody and the FcγR was carried out using Biacore T100 (GE Healthcare). HBS-EP+ (GE Healthcare) was used as the running buffer, and the measurement temperature was set to 25° C. Chips produced by immobilizing the antigen peptide by the amine coupling method to a Series S Sencor Chip CM5 (GE Healthcare), or alternatively, chips produced by allowing preliminarily biotinylated antigen peptides to interact with and immobilize onto a Series S Sensor Chip SA (certified) (GE Healthcare) were used. Antibodies of interest were captured onto an antigen peptide-immobilized chip, and allowed to interact to each FcγR diluted with running buffer. To regenerate and repeatedly use the chip, the antibodies captured on the chip were washed off by reacting 10 mM glycine-HCl, pH 1.5.

[2] = biological target: T2, FcγRIIb extracellular domain with …; experiment: SPR Biacore, antibody captured, FcgR analyte; vs HeCon Ab GpH7-A5/GpH7-B3/GpL16-k0 = 100
[3] = biological target: T1, FcγRIIa R (FcγRIIa, allotype R: Arg at …); experiment: as above

Binder	He_2aR/2b (IIaR/IIb) [1]	He/Con_2b [2] [control = 100]	He/Con_2aR [3] [control = 100]
GpH7-A5/GpH7-B3 variant G237_05P/GpL16-k0 (antibody, human IgG1, kappa, He Ab: alteration in the GpH7-B3 H chain only; also called He Ab) heavy 1: not shown heavy 2: not shown light: DIVMTQSPLSLPVTPGEPASISCQASESLVHSNRNTYLHWYLQKPGQSPQLLIYKVSNRFSGVPDRFSGSGSGTDFTLKISRVEAEDVGVYYCSQNTHVPPTFGQGTKVEIERTVAAPSVFIFPPSDEQLKSGTASVVCLLNNFYPREAKVQWKVDNALQSGNSQESVTEQDSKDSTYSLSSTLTLSKADYEKHKVYACEVTHQGLSSPVTKSFNRGEC	1.4	24.6	34.5
GpH7-A5/GpH7-B3 variant L234_05P/GpL16-k0 (antibody, human IgG1, kappa, He Ab: alteration in the GpH7-B3 H chain only; also called He Ab) heavy 1: not shown heavy 2: not shown light: DIVMTQSPLSLPVTPGEPASISCQASESLVHSNRNTYLHWYLQKPGQSPQLLIYKVSNRFSGVPDRFSGSGSGTDFTLKISRVEAEDVGVYYCSQNTHVPPTFGQGTKVEIERTVAAPSVFIFPPSDEQLKSGTASVVCLLNNFYPREAKVQWKVDNALQSGNSQESVTEQDSKDSTYSLSSTLTLSKADYEKHKVYACEVTHQGLSSPVTKSFNRGEC	1.23	72.9	89.6
GpH7-A5/GpH7-B3 variant G237_14T/GpL16-k0 (antibody, human IgG1, kappa, He Ab: alteration in the GpH7-B3 H chain only; also called He Ab) heavy 1: not shown heavy 2: not shown light: DIVMTQSPLSLPVTPGEPASISCQASESLVHSNRNTYLHWYLQKPGQSPQLLIYKVSNRFSGVPDRFSGSGSGTDFTLKISRVEAEDVGVYYCSQNTHVPPTFGQGTKVEIERTVAAPSVFIFPPSDEQLKSGTASVVCLLNNFYPREAKVQWKVDNALQSGNSQESVTEQDSKDSTYSLSSTLTLSKADYEKHKVYACEVTHQGLSSPVTKSFNRGEC	1.43	54.8	78.6
GpH7-A5/GpH7-B3 variant L234_02A/GpL16-k0 (antibody, human IgG1, kappa, He Ab: alteration in the GpH7-B3 H chain only; also called He Ab) heavy 1: not shown heavy 2: not shown light: DIVMTQSPLSLPVTPGEPASISCQASESLVHSNRNTYLHWYLQKPGQSPQLLIYKVSNRFSGVPDRFSGSGSGTDFTLKISRVEAEDVGVYYCSQNTHVPPTFGQGTKVEIERTVAAPSVFIFPPSDEQLKSGTASVVCLLNNFYPREAKVQWKVDNALQSGNSQESVTEQDSKDSTYSLSSTLTLSKADYEKHKVYACEVTHQGLSSPVTKSFNRGEC	1.23	64.9	79.6
GpH7-A5/GpH7-B3 variant L234_01G/GpL16-k0 (antibody, human IgG1, kappa, He Ab: alteration in the GpH7-B3 H chain only; also called He Ab) heavy 1: not shown heavy 2: not shown light: DIVMTQSPLSLPVTPGEPASISCQASESLVHSNRNTYLHWYLQKPGQSPQLLIYKVSNRFSGVPDRFSGSGSGTDFTLKISRVEAEDVGVYYCSQNTHVPPTFGQGTKVEIERTVAAPSVFIFPPSDEQLKSGTASVVCLLNNFYPREAKVQWKVDNALQSGNSQESVTEQDSKDSTYSLSSTLTLSKADYEKHKVYACEVTHQGLSSPVTKSFNRGEC	1.23	50.7	62.3
GpH7-A5/GpH7-B3 variant G237_16H/GpL16-k0 (antibody, human IgG1, kappa, He Ab: alteration in the GpH7-B3 H chain only; also called He Ab) heavy 1: not shown heavy 2: not shown light: DIVMTQSPLSLPVTPGEPASISCQASESLVHSNRNTYLHWYLQKPGQSPQLLIYKVSNRFSGVPDRFSGSGSGTDFTLKISRVEAEDVGVYYCSQNTHVPPTFGQGTKVEIERTVAAPSVFIFPPSDEQLKSGTASVVCLLNNFYPREAKVQWKVDNALQSGNSQESVTEQDSKDSTYSLSSTLTLSKADYEKHKVYACEVTHQGLSSPVTKSFNRGEC	1.35	55.2	74.5
GpH7-A5/GpH7-B3 variant L234_12R/GpL16-k0 (antibody, human IgG1, kappa, He Ab: alteration in the GpH7-B3 H chain only; also called He Ab) heavy 1: not shown heavy 2: not shown light: DIVMTQSPLSLPVTPGEPASISCQASESLVHSNRNTYLHWYLQKPGQSPQLLIYKVSNRFSGVPDRFSGSGSGTDFTLKISRVEAEDVGVYYCSQNTHVPPTFGQGTKVEIERTVAAPSVFIFPPSDEQLKSGTASVVCLLNNFYPREAKVQWKVDNALQSGNSQESVTEQDSKDSTYSLSSTLTLSKADYEKHKVYACEVTHQGLSSPVTKSFNRGEC	1.58	18.9	29.9
GpH7-A5/GpH7-B3 variant L234_11K/GpL16-k0 (antibody, human IgG1, kappa, He Ab: alteration in the GpH7-B3 H chain only; also called He Ab) heavy 1: not shown heavy 2: not shown light: DIVMTQSPLSLPVTPGEPASISCQASESLVHSNRNTYLHWYLQKPGQSPQLLIYKVSNRFSGVPDRFSGSGSGTDFTLKISRVEAEDVGVYYCSQNTHVPPTFGQGTKVEIERTVAAPSVFIFPPSDEQLKSGTASVVCLLNNFYPREAKVQWKVDNALQSGNSQESVTEQDSKDSTYSLSSTLTLSKADYEKHKVYACEVTHQGLSSPVTKSFNRGEC	1.66	16.2	26.8

Continued, values first:

He_2aR/2b (IIaR/IIb) [1]	He/Con_2b [2] [control = 100]	He/Con_2aR [3] [control = 100]	Binder
1.72	6.3	10.8	GpH7-A5/GpH7-B3 variant L235_11K/GpL16-k0 (antibody, human IgG1, kappa, He Ab: alteration in the GpH7-B3 H chain only; also called He Ab) heavy 1: not shown heavy 2: not shown light: DIVMTQSPLSLPVTPGEPASISCQASESLVHSNRNTYLHWYLQKPGQSPQLLIYKVSNRFSGVPDRFSGSGSGTDFTLKISRVEAEDVGVYYCSQNTHVPPTFGQGTKVEIERTVAAPSVFIFPPSDEQLKSGTASVVCLLNNFYPREAKVQWKVDNALQSGNSQESVTEQDSKDSTYSLSSTLTLSKADYEKHKVYACEVTHQGLSSPVTKSFNRGEC
1.21	59.4	71.8	GpH7-A5/GpH7-B3 variant L234_16H/GpL16-k0 (antibody, human IgG1, kappa, He Ab: alteration in the GpH7-B3 H chain only; also called He Ab) heavy 1: not shown heavy 2: not shown light: DIVMTQSPLSLPVTPGEPASISCQASESLVHSNRNTYLHWYLQKPGQSPQLLIYKVSNRFSGVPDRFSGSGSGTDFTLKISRVEAEDVGVYYCSQNTHVPPTFGQGTKVEIERTVAAPSVFIFPPSDEQLKSGTASVVCLLNNFYPREAKVQWKVDNALQSGNSQESVTEQDSKDSTYSLSSTLTLSKADYEKHKVYACEVTHQGLSSPVTKSFNRGEC
1.36	48.2	65.3	GpH7-A5/GpH7-B3 variant L235_13S/GpL16-k0 (antibody, human IgG1, kappa, He Ab: alteration in the GpH7-B3 H chain only; also called He Ab) heavy 1: not shown heavy 2: not shown light: DIVMTQSPLSLPVTPGEPASISCQASESLVHSNRNTYLHWYLQKPGQSPQLLIYKVSNRFSGVPDRFSGSGSGTDFTLKISRVEAEDVGVYYCSQNTHVPPTFGQGTKVEIERTVAAPSVFIFPPSDEQLKSGTASVVCLLNNFYPREAKVQWKVDNALQSGNSQESVTEQDSKDSTYSLSSTLTLSKADYEKHKVYACEVTHQGLSSPVTKSFNRGEC
1.24	60.3	75.1	GpH7-A5/GpH7-B3 variant L234_19Q/GpL16-k0 (antibody, human IgG1, kappa, He Ab: alteration in the GpH7-B3 H chain only; also called He Ab) heavy 1: not shown heavy 2: not shown light: DIVMTQSPLSLPVTPGEPASISCQASESLVHSNRNTYLHWYLQKPGQSPQLLIYKVSNRFSGVPDRFSGSGSGTDFTLKISRVEAEDVGVYYCSQNTHVPPTFGQGTKVEIERTVAAPSVFIFPPSDEQLKSGTASVVCLLNNFYPREAKVQWKVDNALQSGNSQESVTEQDSKDSTYSLSSTLTLSKADYEKHKVYACEVTHQGLSSPVTKSFNRGEC
1.24	62.5	77.5	GpH7-A5/GpH7-B3 variant L234_14T/GpL16-k0 (antibody, human IgG1, kappa, He Ab: alteration in the GpH7-B3 H chain only; also called He Ab) heavy 1: not shown heavy 2: not shown light: DIVMTQSPLSLPVTPGEPASISCQASESLVHSNRNTYLHWYLQKPGQSPQLLIYKVSNRFSGVPDRFSGSGSGTDFTLKISRVEAEDVGVYYCSQNTHVPPTFGQGTKVEIERTVAAPSVFIFPPSDEQLKSGTASVVCLLNNFYPREAKVQWKVDNALQSGNSQESVTEQDSKDSTYSLSSTLTLSKADYEKHKVYACEVTHQGLSSPVTKSFNRGEC
1.37	35.4	48.5	GpH7-A5/GpH7-B3 variant L235_01G/GpL16-k0 (antibody, human IgG1, kappa, He Ab: alteration in the GpH7-B3 H chain only; also called He Ab) heavy 1: not shown heavy 2: not shown light: DIVMTQSPLSLPVTPGEPASISCQASESLVHSNRNTYLHWYLQKPGQSPQLLIYKVSNRFSGVPDRFSGSGSGTDFTLKISRVEAEDVGVYYCSQNTHVPPTFGQGTKVEIERTVAAPSVFIFPPSDEQLKSGTASVVCLLNNFYPREAKVQWKVDNALQSGNSQESVTEQDSKDSTYSLSSTLTLSKADYEKHKVYACEVTHQGLSSPVTKSFNRGEC
